The record followed here is patent publication US20210147558A1 (OSE IMMUNOTHERAPEUTICS, published 2021).

For the assay, the target named is T1, human CMKLR1 (Chemokine-like receptor 1) (human, UniProt Q99788 1-373).
T1 sequence: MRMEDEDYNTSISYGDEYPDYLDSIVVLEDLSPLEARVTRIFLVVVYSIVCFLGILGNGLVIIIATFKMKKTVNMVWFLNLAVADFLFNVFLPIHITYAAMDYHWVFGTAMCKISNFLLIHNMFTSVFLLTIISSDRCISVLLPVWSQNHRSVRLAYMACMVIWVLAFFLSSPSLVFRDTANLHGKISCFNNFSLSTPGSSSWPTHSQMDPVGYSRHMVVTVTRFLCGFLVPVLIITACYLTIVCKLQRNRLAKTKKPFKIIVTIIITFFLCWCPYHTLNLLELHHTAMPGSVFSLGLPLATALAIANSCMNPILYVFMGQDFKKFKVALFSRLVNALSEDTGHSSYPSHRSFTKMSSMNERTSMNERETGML
In words: cell-based or functional assay.

B1: anti-CMKLR1 antibody clone 2G1 (antibody, V domains shown)
VH: EVQLVASGGGLVQPGGSLKLSCAASGFTFSSYGMSWVRQTPDRRLELVATINRYGGSTYYPDSVKGRFTISRDNAKNTLYLQMSSLKSEDTAMYYCPRLIYYGNEGDSWGQGTTLTVSS
VL: QIVLTQSPAIMSASPGEKVTMTCSASSSVSFMHWYQQKSGTSPKRWIYDTTKLTSGVPARFSGSGSGTFYSLTISSMEAEDAATYYCQQWNSKPPLTFGPGTKLELKR
Take B1: the “IC50 (read off the curve) of the partial decrease (about one fifth); 2G1 with chemerin 6 nM (circles), beta-arrestin recruitment, CHO-K1 CMKLR1 cells” value was approximately 10 nM and the “IC50 (read off the curve) of the partial decrease (about one third); 2G1 with chemerin 2 nM (diamonds), beta-arrestin recruitment, CHO-K1 CMKLR1 cells” value is approximately 20 nM.
